Results from paper PMC6304784, “Pathological mutations differentially affect the self-assembly and polymerisation of the innate immune system signalling adaptor molecule MyD88” (BMC Biology, 2018).

Target: the molecule itself
Assay: single-molecule fluorescence fluctuation spectroscopy (brightness B parameter, time-traces, intensity histograms); GFP-tagged protein freely diffusing in the cell-free expression mixture on a confocal microscope, 488-nm laser; dilution series of the DNA template giving 0 to about 320 nM protein; mutants compared at 150 nM; samples diluted 10 times in buffer A

Row | Protein | average brightness B (> 150 nM) relative to monomeric sfGFP [fold over monomeric GFP]
1 | GFP-tagged MyD88 TIR domain (residues 159-296) (domain or fragment, human, UniProt Q99836 159-296, looked up, MyD88 TIR domain, residues 159-296; also called TIR domain alone; source: in vitro translated in Leishmania tarentolae extract (LTE), measured without purification; not shown: GFP, N-terminal, kept) ERFDAFICYCPSDIQFVQEMIRQLEQTNYRLKLCVSDRDVLPGTCVWSIASELIEKRCRRMVVVVSDDYLQSKECDFQTKFALSLSPGAHQKRLIPIKYKAMKKEFPSILRFITVCDYTNPCTKSWFWTRLAKALSLP | ~4
2 | GFP-tagged MyD88 death domain (residues 1-117, includes part of the intermediate domain) (domain or fragment, human, UniProt Q99836 1-117, looked up, MyD88 death domain with the crucial part of the intermediate domain, residues 1-117; also called DD; death domain alone; source: in vitro translated in Leishmania tarentolae extract (LTE), measured without purification; not shown: GFP, N-terminal, kept) MAAGGPGAGSAAPVSSTSSLPLAALNMRVRRRLSLFLNVRTQVAADWTALAEEMDFEYLEIRQLETQADPTGRLLDAWQGRPGASVGRLLELLTKLGRDDVLLELGPSIEEDCQKYI | ~8
